Assay results: patent US20230074436A1 (DENALI THERAPEUTICS, published 2023)

B1: HC6_LC_k3_7 (antibody, V domains shown)
VH: EVQLVESGGGLVQPGGSLRLSCAASGFTFSNAAMYWVRQAPGKGLELVSRIRTKPNNYATYHADSVKGRFTISRDDSKNTLYLQMNSLRAEDTAVYYCTADMATGDYWGQGTLVTVSS
VL: EIVMTQSPATLSLSPGERATLSCKASQNISNYLDWYQQKPGQAPRPLIYSTNNLKTGIPARFSGSGSGTDFTLTISSLQPEDFAVYYCYQYKSAWTFGQGTKVEIK
B2: HC6_LC_k3_8 (antibody, V domains shown)
VH: EVQLVESGGGLVQPGGSLRLSCAASGFTFSNAAMYWVRQAPGKGLELVSRIRTKPNNYATYHADSVKGRFTISRDDSKNTLYLQMNSLRAEDTAVYYCTADMATGDYWGQGTLVTVSS
VL: EIVMTQSPATLSLSPGERATLSCKASQGISNYLDWYQQKPGQAPRPLIYSTNNLKTGIPARFSGSGSGTDFTLTISSLQPEDFAVYYCYQYKSAWTFGQGTKVEIK
B3: HC6_LC_k3_6 (antibody, V domains shown)
VH: EVQLVESGGGLVQPGGSLRLSCAASGFTFSNAAMYWVRQAPGKGLELVSRIRTKPNNYATYHADSVKGRFTISRDDSKNTLYLQMNSLRAEDTAVYYCTADMATGDYWGQGTLVTVSS
VL: EIVMTQSPATLSLSPGERATLSCKASANINKQLDWYQQKPGQAPRPLIYSTNNLKTGIPARFSGSGSGTDFTLTISSLQPEDFAVYYCYQYKSAWTFGQGTKVEIK
B4: HC6_LC_k3_13 (antibody, V domains shown)
VH: EVQLVESGGGLVQPGGSLRLSCAASGFTFSNAAMYWVRQAPGKGLELVSRIRTKPNNYATYHADSVKGRFTISRDDSKNTLYLQMNSLRAEDTAVYYCTADMATGDYWGQGTLVTVSS
VL: EIVMTQSPATLSLSPGERATLSCKASQNINANLDWYQQKPGQAPRPLIYSTNNLKTGIPARFSGSGSGTDFTLTISSLQPEDFAVYYCYQYKSAWTFGQGTKVEIK
B5: HC6_LC_k3_12 (antibody, V domains shown)
VH: EVQLVESGGGLVQPGGSLRLSCAASGFTFSNAAMYWVRQAPGKGLELVSRIRTKPNNYATYHADSVKGRFTISRDDSKNTLYLQMNSLRAEDTAVYYCTADMATGDYWGQGTLVTVSS
VL: EIVMTQSPATLSLSPGERATLSCKASQNINDNLDWYQQKPGQAPRPLIYSTNNLKTGIPARFSGSGSGTDFTLTISSLQPEDFAVYYCYQYKSAWTFGQGTKVEIK
B6: HC6_LC_k3_5 (antibody, V domains shown)
VH: EVQLVESGGGLVQPGGSLRLSCAASGFTFSNAAMYWVRQAPGKGLELVSRIRTKPNNYATYHADSVKGRFTISRDDSKNTLYLQMNSLRAEDTAVYYCTADMATGDYWGQGTLVTVSS
VL: EIVMTQSPATLSLSPGERATLSCKASQNINKQLDWYQQKPGQAPRPLIYSTNNLKTGIPARFSGSGSGTDFTLTISSLQPEDFAVYYCYQYKSAWTFGQGTKVEIK
B7: HC6_LC_k3_10 (antibody, V domains shown)
VH: EVQLVESGGGLVQPGGSLRLSCAASGFTFSNAAMYWVRQAPGKGLELVSRIRTKPNNYATYHADSVKGRFTISRDDSKNTLYLQMNSLRAEDTAVYYCTADMATGDYWGQGTLVTVSS
VL: EIVMTQSPATLSLSPGERATLSCKASQNISNDLDWYQQKPGQAPRPLIYSTNNLKTGIPARFSGSGSGTDFTLTISSLQPEDFAVYYCYQYKSAWTFGQGTKVEIK
B8: HC6_LC_k3_9 (antibody, V domains shown)
VH: EVQLVESGGGLVQPGGSLRLSCAASGFTFSNAAMYWVRQAPGKGLELVSRIRTKPNNYATYHADSVKGRFTISRDDSKNTLYLQMNSLRAEDTAVYYCTADMATGDYWGQGTLVTVSS
VL: EIVMTQSPATLSLSPGERATLSCKASQGISNYLAWYQQKPGQAPRPLIYSTNNLKTGIPARFSGSGSGTDFTLTISSLQPEDFAVYYCYQYKSAWTFGQGTKVEIK
B9: HC6_LC_k3_11 (antibody, V domains shown)
VH: EVQLVESGGGLVQPGGSLRLSCAASGFTFSNAAMYWVRQAPGKGLELVSRIRTKPNNYATYHADSVKGRFTISRDDSKNTLYLQMNSLRAEDTAVYYCTADMATGDYWGQGTLVTVSS
VL: EIVMTQSPATLSLSPGERATLSCKASQNISNQLDWYQQKPGQAPRPLIYSTNNLKTGIPARFSGSGSGTDFTLTISSLQPEDFAVYYCYQYKSAWTFGQGTKVEIK
B10: HC2_LC1 (antibody, V domains shown)
VH: EVQLVESGGGLVQPGGSLRLSCAASGFTFSNAAMYWVRQAPGKGLELVSRIRTKPNNYATYHADSVKGRFTISRDNSKNTLYLQMNSLRAEDTAVYYCTADMATGDYWGQGTLVTVSS
VL: DIQMTQSPSSLSASVGDRVTITCKASQNINKNLDWYQQKPGKAPKLLIYSTNNLQTGVPSRFSGSGSGTDFTLTISSLQPEDFATYYCYQYKSAWTFGQGTKVEIK
notes: humanized 20H4 IgG
B11: HC3_LC1 (antibody, V domains shown)
VH: EVQLVESGGGLVQPGGSLRLSCAASGFTFSNAAMYWVRQAPGKGLELVSRIRTKPNNYATYHADSVKGRFTISRDNSKNTVYLQMNSLRAEDTAVYYCTADMATGDYWGQGTLVTVSS
VL: DIQMTQSPSSLSASVGDRVTITCKASQNINKNLDWYQQKPGKAPKLLIYSTNNLQTGVPSRFSGSGSGTDFTLTISSLQPEDFATYYCYQYKSAWTFGQGTKVEIK
notes: humanized 20H4 IgG
B12: HC3_LC2 (antibody, V domains shown)
VH: EVQLVESGGGLVQPGGSLRLSCAASGFTFSNAAMYWVRQAPGKGLELVSRIRTKPNNYATYHADSVKGRFTISRDNSKNTVYLQMNSLRAEDTAVYYCTADMATGDYWGQGTLVTVSS
VL: DIQMTQSPSSLSASVGDRVTITCKASQNINKNLDWYQQKPGKAPKPLIYSTNNLQTGVPSRFSGSGSGTDFTLTISSLQPEDFATYYCYQYKSAWTFGQGTKVEIK
notes: humanized 20H4 IgG
B13: HC5_LC2 (antibody, V domains shown)
VH: EVQLVESGGGLVQPGGSLRLSCAASGFTFSNAAMYWVRQAPGKGLELLARIRTKPNNYATYHADSVKGRFTISRDDSKNTVYLQMNSLRAEDTAVYYCTADMATGDYWGQGTLVTVSS
VL: DIQMTQSPSSLSASVGDRVTITCKASQNINKNLDWYQQKPGKAPKPLIYSTNNLQTGVPSRFSGSGSGTDFTLTISSLQPEDFATYYCYQYKSAWTFGQGTKVEIK
notes: humanized 20H4 IgG
B14: HC5_LC1 (antibody, V domains shown)
VH: EVQLVESGGGLVQPGGSLRLSCAASGFTFSNAAMYWVRQAPGKGLELLARIRTKPNNYATYHADSVKGRFTISRDDSKNTVYLQMNSLRAEDTAVYYCTADMATGDYWGQGTLVTVSS
VL: DIQMTQSPSSLSASVGDRVTITCKASQNINKNLDWYQQKPGKAPKLLIYSTNNLQTGVPSRFSGSGSGTDFTLTISSLQPEDFATYYCYQYKSAWTFGQGTKVEIK
notes: humanized 20H4 IgG
B15: HC3_LC3 (antibody, V domains shown)
VH: EVQLVESGGGLVQPGGSLRLSCAASGFTFSNAAMYWVRQAPGKGLELVSRIRTKPNNYATYHADSVKGRFTISRDNSKNTVYLQMNSLRAEDTAVYYCTADMATGDYWGQGTLVTVSS
VL: DIQMTQSPSSLSASVGDRVTITCKASQNINKNLDWYQQKPGKAPKPLIYSTNNLQTGVPSRFSGSGSGTDYTLTISSLQPEDFATYYCYQYKSAWTFGQGTKVEIK
notes: humanized 20H4 IgG
B16: HC2_LC3 (antibody, V domains shown)
VH: EVQLVESGGGLVQPGGSLRLSCAASGFTFSNAAMYWVRQAPGKGLELVSRIRTKPNNYATYHADSVKGRFTISRDNSKNTLYLQMNSLRAEDTAVYYCTADMATGDYWGQGTLVTVSS
VL: DIQMTQSPSSLSASVGDRVTITCKASQNINKNLDWYQQKPGKAPKPLIYSTNNLQTGVPSRFSGSGSGTDYTLTISSLQPEDFATYYCYQYKSAWTFGQGTKVEIK
notes: humanized 20H4 IgG

The binders below were run against T1, human alpha-synuclein monomer (human, UniProt P37840 1-140) (assay: SPR (Biacore 8K), IgG captured on anti-human Fc, aSyn monomer injected).
Experimental: (§1) Serial 3-fold dilutions of aSyn were injected at a flow rate of 30 μL/min. Each sample was analyzed using a 3-minute association and a 10-minute dissociation. After each injection, the chip was regenerated using 3 M MgCl₂. Binding response was corrected by subtracting the RU from a flow cell capturing an irrelevant IgG at similar density. A 1:1 Languir model of simultaneous fitting of kₒₙ and koff was used for kinetics analysis.

B1 and B2 are the same in Kd: 0.22 nM for the first, 0.22 nM for the second.

B3 and B4 are within 1.5-fold of each other in Kd: 0.14 nM for the first, 0.17 nM for the second.

B5 and B6 are within 1.5-fold of each other in Kd: 0.15 nM for the first, 0.21 nM for the second.

B7 and B8 are the same in Kd: 0.17 nM for the first, 0.17 nM for the second.

B9 was tested, and the Kd was 0.24 nM.

Biological target: T1, human alpha-synuclein monomer
Assay: as above
Remark: another data set of the same source
Experimental: as §1

Compared with B10, B11 is 1.5-fold lower in Kd: 3.21 nM for the first, 2.12 nM for the second.

B12 and B13 are within 1.5-fold of each other in Kd: 1.63 nM for the first, 1.56 nM for the second.

First: B14
Second: B15
The Kd of the first is 2.6-fold lower: 1.97 nM for the first, 5.2 nM for the second.

B16 showed a Kd of 6.59 nM.
